# Patent US20220242935A1
# Columns and labels:
# Assay in all cases: crystal structure of the Fab-NA complex
# [1] = molecular target: N2 NA ectodomain of A/Japan/305/1957 (H2N2) (influenza A virus A/Japan/305/1957 (H2N2))
# [2] = molecular target: N1 NA ectodomain of A/California/04/2009 (H1N1) (influenza A virus A/California/04/2009 (H1N1)) (UniProt Q6DPI6)
# [3] = molecular target: N9 NA ectodomain of A/Hunan/02650/2016 (H7N9) (influenza A virus A/Hunan/02650/2016 (H7N9))
substance,measurement,setting,value
1E01 Fab,total buried surface area on the NA,[1],900 Å2
1G01 Fab,total buried surface area on the NA,[2],800 Å2
1G04 Fab,total buried surface area on the NA,[3],1030 Å2
